Experimental data reported in the DeepSol protein solubility set.

test: soluble on expression in E. coli; label from the status in PepcDB or PDB records

Row | Sequence | soluble on expression in E. coli
1 | MGSDKIHHHHHHMDPAPSLGCSLKDVKWSSVAVPLDLLVSTYRLPQIARLDNGECVEGLRENDYLLIHSCRQWTTITAHSLEEGHYVIGPKIEIPVHYAGQFKLLEQDRDIKEPVQYFNSVEEVAKAFPERVYVMEDITFNVKVASGECNEDTEVYNITLCTGDELTLMGQAEILYAKTFKEKSRLNTIFKKIGKLNSISKLGKGKMPCLICMNHRTNESISLPFQCKGRFSTRSPLELQMQEGEHTIRNIVEKTRLPVNVTVPSPPPRNPYDLHFIREGHRYKFVNIQTKTVVVCCVLRNNKILPMHFPLHLTVPKFSLPEHLVKGESWPETLVHHWLGICQEQFDIDEYSRAVRDVKTDWNEECK | not soluble
2 | MFDLAERLSSNKSNESKLSHKLKTMLFYQTEECRSLVNESFRFDGKDEPKCVKNRDEEFRQIDLLNPPEVVIIELNASQDVVQDAQRLAHLLPSQVSVVIVGSEDAISTIRLLKEMGFYYLFWPVSKQECSDFMKHVLDNHEQHRGLMANRKSKRVAMVGVKGGVGTSLISSEVSRMLSFDKGVSTLLVDHNYHGGNLDIFMGLKQHQKRIVQKGTLISNIDGTYALGLIRKITPMLSMLAIDSDELNAQELKEYTLAVQEQALKNSSVMIEDHAHLIRNEDDIIKLLQQVDVLVLVFDATVSSLRDYNRLNQLVKKNNLDNQTRVISVLNSSRPSNSGSVSAEEIEKYSGQRATISIPYDDKAPQYVLEGLQIVKTKSAMALPLMNLVALILGEEPKQESRSFLSFFKKKG | not soluble
3 | MHHHHHHSSGRENLYFQGSTRGKVVLHTSLGDLDVELWARECPLACRNFVQLCLEGYYVNTIFHRVVKDFIVQGGDPTGTGRGGADTTFDGKPFDVETHPRLKFRYRGLVGVANLGRSSKDAENDERGRSLGTNGNQFFITLARADVLNNAYTLFGKVTGHTLYNLMKFNDLEVGKEDRPMTPPFIKSVDVLWNPFEDLVPRRLPDAPPAQKDERKRARAAGGRTTEGRARS | soluble
4 | MGSDKIHHHHHHMGIIATSFIPFRGLSVSNLSETNFSETSNANVDPQEIAKFEKMAATWWDPEGEFKPIHKLNPLRLNYIDQAVGGLFGKRVLDVGCGGGILSESMARLGARVDGLDMGAEPLDVAKLHALEMGVEINYIQDTAEHHRDSHQGQYDVVTCMEMLEHVPDPASVIKACSDMVKPGGYVFFSTINRNIRAYVETVIGAEYLLKMLPVGTHDHKKYIKPAELIGMADAVDLECVDATGITYNPLTEIFRYTKSLDVNYMIATVKQDD | not soluble
5 | MEEIPEHEGYKFRVARPRTDFRGTHQYASPNAHMLIELGRHDDIWSLMYMVAESFVELPWTRCEETEVEHYMNQSTILRLFSDEKNPTRLNADMRRQLDEIDSMLKASKYYDSPNYDAVYQFFKDSMAKAKVTWDTPFDWEIGNTLSEETSKGVKRKMGGPWENPGLFFTVLQ | not soluble
6 | IHTMWKGTISFGLVNIPIKLHAATENKDVRLRQLHKECKTPINYLKVCPNCDAEVEPNDIVKAYEYAKNKFVELDEEELASLKKEQEDKAVEIIDFVKLQEIDPIYFDKSYYMSPGDGGGKAYTLLREALAESEKIGVAKIIIRAKEHLAVIRVYKNTLLMETIHFPDEVRAVDQVPNVPE | not soluble
7 | MGCLLFLLLWALLQAWGSAEVPQRLFPLRCLQISSFANSSWTRTDGLAWLGELQTHSWSNDSDTVRSLKPWSQGTFSDQQWETLQHIFRVYRSSFTRDVKEFAKMLRLSYPLELQVSAGCEVHPGNASNNFFHVAFQGKDILSFQGTSWEPTQEAPLWVNLAIQVLNQDKWTRETVQWLLNGTCPQFVSGLLESGKSELKKQVKPKAWLSRGPSPGPGRLLLVCHVSGFYPKPVWVKWMRGEQEQQGTQPGDILPNADETWYLRATLDVVAGEAAGLSCRVKHSSLEGQDIVL | soluble
8 | GLSAAQRQVVASTWKDIAGSDNGAGVGKECFTKFLSAHHDMAAVFGFSGASDPGVADLGAKVLAQIGVAVSHLGDEGKMVAEMKAVGVRHKGYGNKHIKAEYFEPLGASLLSAMEHRIGGKMNAAAKDAWAAAYADISGALISGLQS | soluble
9 | MAHHHHHHMGANGSKTASSSSAVPAATTTTGDNKGTVNRWYGAVSDASDADLGLAPDVSLSSDISTPEENAAKRKAYAHLQSPYARHQLAASMKGRGSSGNNGAEASATAHVNLIEQIYNEDFETIDHIQALRLPPMVSQQLKNTVRSEAERRCAEVEKTMARCLQDKMWTSWKCQKERDTYYHCVEEIEQRNLRPDPTNPHWVDMLTSFRWKYNLGVFHGEIIGRNNIMKQIWREHYPDRELPHPWVKDA | not soluble
10 | REVADTAYDRTLLASARAIADGLYEKDGTLRADVPYVALDTFAYDSAGRIFYQVNDIHGRMISGYENLPAAPADTLRTDDYPALAKFYDGVYQGVDVRVVSLLQPVSEPSMSGMAEIRVAETEGARERMARS | not soluble
11 | MSTVVDQEGNNKQQTVAVIGAGIIGINCALELQSLGYQVTLLDKEGIGLGCSKANAGHFATEQVFPLAEFSLLWQMPKLLFDPLGPVALSAKHFIKAIPWFMQFFNNMRPTLRNKNKKALQALNKNAIHHYTALLKAAEAEHLISLDGSLLVFETNDRTKVELMYQHYLAAGIAVKLLDKRQTLELEPNLSNNINYSLYFTDVAHTIDPLALSKTLAEFAMCKGMTFQQTAVTSVTQTQSGVTVEIDEQHLHVDHCVIACGAWSKKLLNGLNYHLPIEAERGYSLSLPISAAASALLSRPVASAERRFIITPMGKTLRLAGTVEYAGLNAPANYKRAEMLKGNAAYILKRLPENEEKQEAWMGCRPSLPDSLPVICQAPNHDKIFFALGHQHLGLTQGAITGKLIGQLVTGHSPEINIDPFCIRRFNLEHHHHHH | not soluble
12 | MPQESSDAKRIEPPRKVDFMLKPRFTNTVPDVPFDAKFMTCPFVPLGRFVEFQPAAIYRDYKHAVICDDDMGLNVDLIDLKKYDEDPIETEIDEKDNILLEDDGAAKLIAKRSQQHSKLVPWMRKTEYISTEFNRFGVTADRQETKLGYNLKKNQQVEDMYRDKQSQIDAINKTFEDVRKPVKEHYSKKGVKAVEESFVFPDFDHWKHLFAHVQFDGDTITTEFEEEDERQQARESSVIKAMEFEDQKFAAVFVPTIGCLTSFMDDLELERPFDEDMKYEFLLSREYTFKMEHLPPRDRDVFIMYHRNNVFQYNEVDCNVKMTRKPKMALSRKSKLTLTYRNPSELEQKDMNKREAELYEQPKTRKQEILEKIQEKKEEGGDSSDQSSDSDDDKPQKSRSDSSSDVSSDDDSPRKKEPTVDSDSD | not soluble
13 | MKLVTISGPPSSGKTAVLAGVIRAMMASGLKVGALKYDCLATNDDDVFRAIGVPVQTGLSGNLCPDHYFVSNIEECLDWGIREGFDFLLSESAGLCNRCAPHIKGVLAVCVIDNLMGATTPKKIGPMLKYADIVVITKGDIVSQAEREVFAFQVRRANPRAKIMHVNGITGQGAGELASQFLLAPETTCLDGSRLRFSMPAALCSYCLGETRIGMEFQLGNVKKIKMSEEPARLEHHHHHH | soluble
14 | MTQDELYMKEAIKEAKKAEEKGEVPIGAVLVINGEIIARAHNLRETEQRSIAHAEMLVIDEACKALGTWRLEGATLYVTLEPCPMCAGAVVLSRVEKVVFGAFDPKGGCSGTLMNLLQEERFNHQAEVVSGVLEEECGGMLSAFFRELRKKKKAARKNLSEMGHHHHHHSH | not soluble
15 | MAHHHHHHMSQQQWTPDQRRQQIAEMLRNKGVICRDFLFTGRCSRSPTCPYMHVANGETRPVPWSVCTFFTQGKCLRDGCSFFHGTQAQLEELHASGAPVYRPQDYMKIAVPPAEYLNADGSIATHLSIAAVPMTPALHVVHGPTVSHENAVNSFQPVLVMQPNSQAIAPTMFASQGRTAHSTPSHFAFYANAPITSQMPTHSAATVLQPTLHTVQPTTFYQAANALLAQPQQHFAPVPQLNTPQQHQLTQQALGSRVYFHIQPH | not soluble
16 | MSLARTRILIVDDEDSIRFGMRDFLESRGYGVVDADSCQRARELFQASPPDVAVIDYRLHDGSAIDLLRDFRQIDADVPMIVLTAYGSIDLAVQAVKEGAEQFLTKPIEMPALHVILKRLLATRRLQRQQQVVATRDRRERVNPLSGGSPAIRDLAEQASKVMHTDSPILILGETGTGKSLLAKWLHHHGMRADEAFVDLNCAGLSPDFLETELFGHEKGAFTGATASKQGMLEIADGGTVFLDEIGDVDPRVQPKLLKVLEEKRFRRLGAVREREVDIRLIAATHHDLASKVKEGTFRSDLYFRISSIPLTMPALRDRKEDIVPLARTLLARSLADPSRTPQLTDDAALALREYAWPGNIREGHHHHHH | not soluble
